Patent CN115536747A (YIKESITE BEIJING PHARMACEUTICAL TECH DEVELOPMENT CO LTD, dated 2022)
Numbering of substitutions follows the chain as printed.

T1: Rhesus TROP-2 (猴TROP2蛋白, SPR antigen) (Rhesus (the 2nd table); 食蟹猴 (text paragraph 139), UniProt A0A5F8AGB8 27-274)
T1 construct: also called 食蟹猴TROP2
T1 sequence: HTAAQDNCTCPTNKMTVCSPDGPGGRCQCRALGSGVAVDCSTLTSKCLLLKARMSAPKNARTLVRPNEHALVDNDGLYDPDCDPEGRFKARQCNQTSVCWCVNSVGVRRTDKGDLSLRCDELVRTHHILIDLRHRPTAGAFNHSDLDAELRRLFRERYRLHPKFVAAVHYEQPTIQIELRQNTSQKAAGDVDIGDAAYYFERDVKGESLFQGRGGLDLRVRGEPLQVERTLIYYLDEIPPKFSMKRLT

T2: Human TROP-2 (人TROP2蛋白, SPR antigen) (human, UniProt P09758 27-274, limits assumed)
T2 construct: The construct used in SPR is not described
T2 sequence (looked up): T1 sequence with V36M, N67S, V204I

T3: TROP2抗原 (TROP2-Fc融合蛋白, Acrobiosystems, 目录号TR2-H5253) (human, UniProt P09758 27-274)
T3 construct: not shown: human antibody Fc
T3 sequence (looked up): T1 sequence with V36M, N67S, V204I

T4: 人TROP2 on cells (表达TROP2的CHO细胞系; MCF, MDA-MB-231, MDA-MB-468, HCC1395 breast cancer cells) (human, UniProt P09758 27-323)
T4 construct: whole, on cells; also called 细胞膜表面的TROP2抗原; 人细胞表面抗原TROP2
T4 sequence (looked up): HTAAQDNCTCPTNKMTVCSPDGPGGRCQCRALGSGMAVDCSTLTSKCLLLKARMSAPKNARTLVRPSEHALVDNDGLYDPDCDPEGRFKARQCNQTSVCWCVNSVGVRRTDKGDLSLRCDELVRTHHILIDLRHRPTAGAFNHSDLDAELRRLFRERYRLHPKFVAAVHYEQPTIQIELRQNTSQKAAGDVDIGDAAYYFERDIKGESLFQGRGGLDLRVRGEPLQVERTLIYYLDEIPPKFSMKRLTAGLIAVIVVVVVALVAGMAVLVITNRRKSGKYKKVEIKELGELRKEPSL

B1: 1F7亲本抗体 (IgG形式) (antibody, V domains shown)
VH: QVQLVQSGAEVKKPGASVKVSCKASGYTFTSYGINWVRQATGRGLEWMGWMNPNSGNTGYAQKFQGRVTITADESTSTAYMELSSLRSEDTAVYYCARPNTGGDGAFDIWGQGTMVTVSS
VL: DIQLTQSPSSVSASVGDRVTITCRASQGISSWLAWYRQKPGKAPKLLIYAASSLQSGVPSRFSGSGSGTDFTLTISSLQPEDFATYYCQQANSFPITFGQGTRLEIKR
B2: 突变体F7A (IgG形式) (antibody, V domains shown)
VH: B1 VH with S31N, N54R
VL: B1 VL with A50R, S52R, I96V
B3: 1F7单链抗体 (scFv shown on M13 phage) (scFv)
scFv: QVQLVQSGAEVKKPGASVKVSCKASGYTFTSYGINWVRQATGRGLEWMGWMNPNSGNTGYAQKFQGRVTITADESTSTAYMELSSLRSEDTAVYYCARPNTGGDGAFDIWGQGTMVTVSSGGSSRSSSSGGGGSGGGGDIQLTQSPSSVSASVGDRVTITCRASQGISSWLAWYRQKPGKAPKLLIYAASSLQSGVPSRFSGSGSGTDFTLTISSLQPEDFATYYCQQANSFPITFGQGTRLEIK
notes: The phage coat protein fusion is not described; also called hit
B4: 双特异性抗体F7AK3 (TROP2×CD3, cFIST形式) (bispecific antibody, human IgG4 S228P, kappa)
heavy: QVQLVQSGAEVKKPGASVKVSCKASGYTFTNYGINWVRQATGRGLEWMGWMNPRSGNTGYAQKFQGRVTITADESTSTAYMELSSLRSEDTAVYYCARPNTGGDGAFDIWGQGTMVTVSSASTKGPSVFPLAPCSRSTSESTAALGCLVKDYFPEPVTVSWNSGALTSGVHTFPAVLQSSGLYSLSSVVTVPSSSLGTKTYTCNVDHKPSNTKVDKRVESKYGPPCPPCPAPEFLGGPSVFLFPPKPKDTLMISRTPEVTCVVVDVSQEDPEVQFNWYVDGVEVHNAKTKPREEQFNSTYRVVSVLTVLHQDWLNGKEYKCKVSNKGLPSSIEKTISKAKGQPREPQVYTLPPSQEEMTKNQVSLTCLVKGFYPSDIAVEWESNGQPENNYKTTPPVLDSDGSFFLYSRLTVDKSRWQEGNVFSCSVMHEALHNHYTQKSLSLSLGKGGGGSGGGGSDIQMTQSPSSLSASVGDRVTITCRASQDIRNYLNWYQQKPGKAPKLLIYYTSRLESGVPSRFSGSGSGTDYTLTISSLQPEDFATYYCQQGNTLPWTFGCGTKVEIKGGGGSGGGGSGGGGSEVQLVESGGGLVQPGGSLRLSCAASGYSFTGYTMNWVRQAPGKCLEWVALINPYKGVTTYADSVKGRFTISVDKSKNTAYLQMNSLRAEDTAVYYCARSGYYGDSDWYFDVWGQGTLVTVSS
light: DIQLTQSPSSVSASVGDRVTITCRASQGISSWLAWYRQKPGKAPKLLIYRARSLQSGVPSRFSGSGSGTDFTLTISSLQPEDFATYYCQQANSFPVTFGQGTRLEIKRTVAAPSVFIFPPSDEQLKSGTASVVCLLNNFYPREAKVQWKVDNALQSGNSQESVTEQDSKDSTYSLSSTLTLSKADYEKHKVYACEVTHQGLSSPVTKSFNRGEC
notes: also called F7AK3双抗

Columns and labels:
[1] = biological target: T1, Rhesus TROP-2 (猴TROP2蛋白, SPR antigen); experiment: SPR, IgG
[2] = biological target: T2, Human TROP-2 (人TROP2蛋白, SPR antigen); experiment: SPR, IgG
[3] = biological target: T2, Human TROP-2 (人TROP2蛋白, SPR antigen); experiment: ELISA (内在亲和力)
[4] = biological target: T1, Rhesus TROP-2 (猴TROP2蛋白, SPR antigen); experiment: SPR, IgG; reference 1F7
[5] = biological target: T2, Human TROP-2 (人TROP2蛋白, SPR antigen); experiment: SPR, IgG; reference 1F7
[6] = biological target: T3, TROP2抗原 (TROP2-Fc融合蛋白, Acrobiosystems, …); experiment: monoclonal phage ELISA, TROP2 antigen coated at 1 μg/ml, positive = more than 3x negative control
[7] = biological target: T4, 人TROP2 on cells (表达TROP2的CHO细胞系; MCF, …); experiment: flow cytometry on HCC1395 cells, PE anti-human IgG Fc
[8] = biological target: T4, 人TROP2 on cells (表达TROP2的CHO细胞系; MCF, …); experiment: flow cytometry on MCF cells, PE anti-human IgG Fc
人T细胞的CD3 (CD3+ T细胞) = biological target: T5, 人T细胞的CD3 (CD3+ T细胞) (human, UniProt P07766 23-207; P04234 22-171; P09693 23-182; P20963 22-164); experiment: flow cytometry on CD3+ T cells, PE anti-human IgG Fc
T5 construct: whole, on cells; also called T细胞表面抗原CD3
T5 sequence (P07766 23-207, chain 1 of 4): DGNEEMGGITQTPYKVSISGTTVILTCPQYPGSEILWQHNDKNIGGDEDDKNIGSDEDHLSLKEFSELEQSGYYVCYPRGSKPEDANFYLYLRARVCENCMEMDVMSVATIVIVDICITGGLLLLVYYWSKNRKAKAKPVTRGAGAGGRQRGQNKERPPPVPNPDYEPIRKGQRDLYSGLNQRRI
T5 sequence (P04234 22-171, chain 2 of 4): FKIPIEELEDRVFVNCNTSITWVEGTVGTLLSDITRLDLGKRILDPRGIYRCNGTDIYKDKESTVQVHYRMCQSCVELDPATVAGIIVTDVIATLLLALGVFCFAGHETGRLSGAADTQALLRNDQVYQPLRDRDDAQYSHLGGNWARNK
T5 sequence (P09693 23-182, chain 3 of 4): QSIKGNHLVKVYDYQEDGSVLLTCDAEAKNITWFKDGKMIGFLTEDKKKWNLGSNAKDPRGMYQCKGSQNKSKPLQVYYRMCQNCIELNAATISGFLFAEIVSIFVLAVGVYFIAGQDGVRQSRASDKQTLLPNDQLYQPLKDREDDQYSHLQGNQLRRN
T5 sequence (P20963 22-164, chain 4 of 4): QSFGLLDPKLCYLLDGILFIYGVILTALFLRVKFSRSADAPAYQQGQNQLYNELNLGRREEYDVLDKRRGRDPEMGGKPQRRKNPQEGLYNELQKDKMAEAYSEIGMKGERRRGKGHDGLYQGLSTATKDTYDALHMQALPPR

[9] = biological target: T4, 人TROP2 on cells (表达TROP2的CHO细胞系; MCF, …); experiment: flow cytometry on MDA-MB-231 cells, PE anti-human IgG Fc
[10] = biological target: T4, 人TROP2 on cells (表达TROP2的CHO细胞系; MCF, …); experiment: flow cytometry on MDA-MB-468 cells, PE anti-human IgG Fc

Row | Binder | Kd [1] [nM] | koff [1] [s⁻¹] | kon [1] [M⁻¹ s⁻¹] | Kd [2] [nM] | koff [2] [s⁻¹] | kon [2] [M⁻¹ s⁻¹] | Kd [3] [nM] | fold improvement of affinity against 1F7 [4] | fold improvement of binding against 1F7 [5] | binding result [6] | EC50 [7] [µg/mL] | EC50 [8] [µg/mL] | EC50 (人T细胞的CD3 (CD3+ T细胞)) [µg/mL] | EC50 [9] [µg/mL] | EC50 [10] [µg/mL]
1 | B1 | 40.7 | 0.000942 | 23100 | 7.57 | 0.000892 | 118000 | ~7.5 |  |  |  |  |  |  |  | 
2 | B2 | 12.8 | 0.00165 | 128000 | 4.35 | 0.000834 | 192000 |  | 3.18 倍 | 1.74 倍 |  |  |  |  |  | 
3 | B3 |  |  |  |  |  |  |  |  |  | binds |  |  |  |  | 
4 | B4 |  |  |  |  |  |  |  |  |  |  | 0.0532 | 0.205 | 0.568 | 0.0891 | 0.0668
